The text below walks through data of publication PMC5750218, “Protein-inspired antibiotics active against vancomycin- and daptomycin-resistant bacteria” (Nature Communications, 2018).

Structures are written as SMILES. Read-outs that look alike come from different tables or passages of the source.

For data set [1], the system named is bioluminescent MSSA Xen-29. As to the kind of experiment: Bioluminescence IP infection in vivo model (neutropenic mice). Also on record: species or system Staphylococcus aureus. The following applies: SC: 200 mg kg^−1 vancomycin, 50 mg kg^−1 daptomycin, 25 mg kg^−1 19 or 24. As to the method:
Performed at the University of Queensland, following similar previous literature procedures. Xen-29 (Caliper LifeSciences), a methicillin-sensitive S. aureus (MSSA) strain which contains a copy of the modified luxABCDE operon of Photorhabdus luminescens was taken from the storage at −80 °C and freshly seeded on agar plates for overnight growth at 37 °C. From the overnight culture preparation, a single colony (tested for bioluminescence) was diluted into 10 mL of MHB and incubated overnight at 37 °C. A mid log-phase subculture was obtained by adding 100 μL of overnight subculture in 10 mL MHB and incubated for a further 2–3 h. Finally, the OD600 value of the bacterial suspension was determined and the colony forming units per millilitre (CFU mL^−1) was extrapolated. The suspension was then diluted out accordingly in order to achieve a 2.5 × 10^8 CFU mL^−1 solution (2.5 × 10^7 CFU in 100 μL). […] Mice were monitored for signs of normal behaviour (i.e. grooming, eating, drinking, sleeping and alertness) during and following dosing. […] Xen-29 colonies were then counted, with the CFU mL^−1 blood calculated. […] Luminescent images were quantified with the IVIS Living Image software where the total flux (number of photons/second) was calculated by a user defined region of interest (ROI) covering the infection sites.

A further data set deals with S. aureus ATCC 43300. Put plainly: Membrane depolarisation assay (diSC3(5)). Format: cell-based, Staphylococcus aureus. Particulars: 16 µg mL^−1, 30 min, MRSA ATCC 43300. How it is done: Antibiotic-induced bacterial cytoplasmic membrane depolarisation was determined using the fluorescent dye 3,3-dipropylthiacarbocyanine diSC3(5) (Sigma Aldrich, Australia) as previously described. Briefly, early exponential phase cells were pelleted and washed twice in 10 mM HEPES buffer (pH 7.4) containing 50 µg mL^−1 of CaCl2 and 5 mM Glucose, and then re-suspended in the same buffer (2 × 10^8 CFU mL^−1). diSC3(5) was added to a final concentration of 1.5 µM and incubated at room temperature in the dark to enable dye uptake and fluorescence quenching. After 30 min, cells were diluted 50-fold in assay buffer and 45 µL of cells were added to a 384-well black walled polystyrene plate (Corning, CLS3573) (Note: NBS plates were not employed, and no polysorbate-80 was added to avoid potential effects on membrane permeability, or interference with fluorescence as previously reported. The MICs of compounds in polystyrene plates are listed in Supplementary Table 12). Background data was collected before adding compounds using a Tecan Infinite® m1000 Pro Multi-mode reader (excitation/emission 612/665 nm) to ensure fluorescence quenching. Compounds were added to a final concentration of 16 µg mL^−1 and fluorescence was monitored for 30 min. Data were corrected by subtraction of background response (diSC3(5) in the presence of untreated cells, no compound). […] Each sample was tested in quadruplicate and independent assays were performed twice showing similar results. Data were analysed and presented using Prism software.

For data set [2] the following is noted: cited from earlier work; for log decrease: CAMHB with polysorbate-80; for log reduction from initial inoculum: nutrient-depleted media, ref Belley AAC 2009 53, 918.
The conditions of data set [3]: for half-life / microsomal CLint: liver microsomes; for Microsome-Predicted EH: hepatic extraction ratio. As to the method: Performed by CDCO, Monash University, Australia.
The metabolic stability assay was performed by incubating each test compound (1 μM) with human (Xenotech, Lot #1210057) and mouse (Xenotech, Lot #1110071) liver microsomes at 37 °C and 0.4 mg mL^−1 protein concentration. The metabolic reaction was initiated by the addition of a nicotinamide adenine dinucleotide phosphate (NADPH)-regenerating system (i.e. NADPH is the cofactor required for cytochrome P450-mediated metabolism) and quenched at various time points over the 60 min incubation period by the addition of acetonitrile. Control samples (containing no NADPH) were included (and quenched at 2, 30 and 60 min) to monitor for potential degradation in the absence of cofactors. Concentrations of each test compound in quenched samples were determined by ultra performance liquid chromatography mass spectrometry (UPLC-MS) (Waters/Micromass Xevo triple quadrupole mass spectrometer). […] In addition, glucuronidation was not considered in this study and may require further assessment using alternative test systems.
Test compound concentration vs. time data were fitted to an exponential decay function to determine the first-order rate constant for substrate depletion. In cases where clear deviation from first-order kinetics was evident, only the initial linear portion of the profile was utilised to determine the degradation rate constant (k). Each substrate depletion rate constant was then used to calculate: (1) a degradation half-life, where t 1/2 = ln(2) k ^−1; (2) an in vitro intrinsic clearance value, where CLint,in vitro = k [microsomal protein content (0.4 mg mL^−1)]^−1; (3) a predicted in vivo hepatic intrinsic clearance value, where CLint = CLint,in vitro × [liver mass (g)/body weight (kg)] × [microsomal protein (mg) / liver mass (g)]; and (4) a predicted in vivo hepatic extraction ratio, where E H = CLblood Q ^−1 = Clint [Q + Clint]^−1.
Scaling parameters assumed were: human liver mass 20 g liver / kg body weight, human microsomal protein 40 mg g^−1 liver mass[49], [50], human hepatic blood flow (Q) 20.7 mL min^−1 kg body weight^−1 [51], mouse liver mass 87.5 g liver / kg body weight, mouse microsomal protein 45 mg g^−1 liver mass[51], mouse hepatic blood flow (Q) 90 mL min^−1 kg body weight^−1 [51].

In the case of `CN[C@H](CC(C)C)C(=O)N[C@H]1C(=O)N[C@@H](CC(N)=O)C(=O)N[C@H]2C(=O)N[C@H]3C(=O)N[C@H](C(=O)N[C@H](C(=O)O)c4cc(O)cc(O)c4-c4cc3ccc4O)[C@H](O)c3ccc(c(Cl)c3)Oc3cc2cc(c3O[C@@H]2O[C@H](CO)[C@@H](O)[C@H](O)[C@H]2O[C@H]2C[C@](C)(N)[C@H](O)[C@H](C)O2)Oc2ccc(cc2Cl)[C@H]1O` [Compound 1, Vancomycin], the “Change in bioluminescence signal (total flux) after inoculation” value in data set [1] is recorded as “progressive reduction in the bioluminescence signal”. Besides, the “Dissipation of membrane potential (diSC3(5) fluorescence)” value (shortened to “Dissipation of membrane potential”) in the data set with S. aureus ATCC 43300 is recorded as “no effect”.
With `CN[C@H]1C(=O)N[C@@H]2Cc3ccc(cc3)Oc3cc4cc(c3O[C@@H]3O[C@H](C(=O)O)[C@@H](O)[C@H](O)[C@H]3NC(=O)CCCCCCCCC(C)C)Oc3ccc(cc3Cl)[C@@H](O)[C@@H]3NC(=O)[C@H](NC(=O)[C@@H]4NC(=O)[C@@H](NC2=O)c2cc(cc(O)c2Cl)Oc2cc1ccc2O)c1ccc(O)c(c1)-c1c(O[C@H]2O[C@H](CO)[C@@H](O)[C@H](O)[C@@H]2O)cc(O)cc1[C@@H](C(=O)NCCCN(C)C)NC3=O` [Compound 3, Dalbavancin], the “Dissipation of membrane potential” value with S. aureus ATCC 43300 is “no effect”. Further, the log reduction in data set [2] (32 µg mL-, 24h, ref Belley AAC 2016 60 4342) is given as 3 log.
With `CCCCCCCCCC(=O)N[C@@H](Cc1c[nH]c2ccccc12)C(=O)N[C@H](CC(N)=O)C(=O)N[C@@H](CC(=O)O)C(=O)N[C@@H]1C(=O)NCC(=O)N[C@@H](CCCN)C(=O)N[C@@H](CC(=O)O)C(=O)N[C@H](C)C(=O)N[C@@H](CC(=O)O)C(=O)NCC(=O)N[C@H](CO)C(=O)N[C@@H]([C@H](C)CC(=O)O)C(=O)N[C@@H](CC(=O)c2ccccc2N)C(=O)O[C@@H]1C` [Compound 4, Daptomycin], in data set [1], the “Change in bioluminescence signal (total flux) after inoculation” value is reported as “progressive reduction in the bioluminescence signal”. In the data set on S. aureus ATCC 43300, the “Dissipation of membrane potential” value is listed as “no effect”.
For the compound `CN[C@H](CC(C)C)C(=O)N[C@H]1C(=O)N[C@@H](CC(N)=O)C(=O)N[C@H]2C(=O)N[C@H]3C(=O)N[C@H](C(=O)N[C@H](C(=O)O)c4cc(O)cc(O)c4-c4cc3ccc4O)[C@H](O[C@H]3C[C@](C)(N)[C@@H](O)[C@H](C)O3)c3ccc(c(Cl)c3)Oc3cc2cc(c3O[C@@H]2O[C@H](CO)[C@@H](O)[C@H](O)[C@H]2O[C@H]2C[C@](C)(NCc3ccc(-c4ccc(Cl)cc4)cc3)[C@@H](O)[C@H](C)O2)Oc2ccc(cc2Cl)[C@H]1O` [Compound 5, Oritavancin, reference compound], the log decrease in data set [2] (4 µg mL-, 1h, ref Belley AAC 2016 60 4342) is reported as 4.5 log; in data set [2] (4 µg mL-, 1h, ref Mckay, J Antimicrob Chemother 2009, 63 1191), 4.5 log; in data set [2] (16 µg mL-, 30 min, ref Belley AAC 2016 60 4342), 4.5 log. Moreover, the “log reduction from initial inoculum” value is listed as 3 log in data set [2] (4 µg mL-) and “approximately 4 log” in data set [2] (16 µg mL-, 3h, no polysorbate-80).
For the compound `CCCCCCCCCCC(=O)N[C@@H](CCCCN)C(=O)N[C@@H](CCCCN)C(=O)N[C@@H](CCCCN)C(=O)N[C@@H](CCCCNC(=O)[C@H]1NC(=O)[C@H]2NC(=O)[C@H](NC(=O)[C@@H]3NC(=O)[C@H](CC(N)=O)NC(=O)[C@H](NC(=O)[C@@H](CC(C)C)NC)[C@H](O)c4ccc(c(Cl)c4)Oc4cc3cc(c4O[C@@H]3O[C@H](CO)[C@@H](O)[C@H](O)[C@H]3O[C@H]3C[C@](C)(N)[C@H](O)[C@H](C)O3)Oc3ccc(cc3Cl)[C@H]2O)c2ccc(O)c(c2)-c2c(O)cc(O)cc21)C(=O)O` [Compound 18, nC10CO-KKK-K(Vancomycin)-OH], in data set [3] (human), the half-life (in general, the time in which the quantity being followed falls by half) was above 4.17 h; the intrinsic clearance (microsomal CLint) (commonly a measure of how fast metabolising enzymes remove a compound, apart from limits set by blood flow) was below 7 µL/min/mg; the “Microsome-Predicted EH” value is below 0.23. In data set [3] (mouse), the half-life is 3.93 h, the intrinsic clearance (microsomal CLint) is 7 µL/min/mg and the “Microsome-Predicted EH” value was 0.24.
For `CCCCCCCCCCC(=O)N[C@@H](CCCCN)C(=O)N[C@@H](CCCCN)C(=O)N[C@@H](CCCCNC(=O)[C@H]1NC(=O)[C@H]2NC(=O)[C@H](NC(=O)[C@@H]3NC(=O)[C@H](CC(N)=O)NC(=O)[C@H](NC(=O)[C@@H](CC(C)C)NC)[C@H](O)c4ccc(c(Cl)c4)Oc4cc3cc(c4O[C@@H]3O[C@H](CO)[C@@H](O)[C@H](O)[C@H]3O[C@H]3C[C@](C)(N)[C@H](O)[C@H](C)O3)Oc3ccc(cc3Cl)[C@H]2O)c2ccc(O)c(c2)-c2c(O)cc(O)cc21)C(=O)O` [Compound 19, nC10CO-KK-K(Vancomycin)-OH], in data set [3] (human), the half-life was above 4.17 h, the intrinsic clearance (microsomal CLint) is below 7 µL/min/mg and the “Microsome-Predicted EH” value was below 0.23. In addition, in data set [3] (mouse), the half-life was above 4.17 h, the microsomal CLint is below 7 µL/min/mg and the “Microsome-Predicted EH” value is reported as below 0.23.
